One experiment concerns the target L418A. Description: substrate peptide enzyme inhibition.
For the next experiment, the target named is D410E. The experiment can be described thus: substrate peptide enzyme inhibition.
The next experiment has as its target P421A. The experiment can be described thus: substrate peptide enzyme inhibition.
The target in another experiment is S413Q. The experiment can be described thus: substrate peptide enzyme inhibition.
Another experiment has as its target G112R. Description: substrate peptide degradation inhibition.
Another experiment has as its target D113K. The experiment can be described thus: substrate peptide degradation inhibition.
The target in the next experiment is G186A. Description: substrate peptide degradation inhibition.
The next experiment addresses P196T. The experiment can be described thus: substrate peptide degradation inhibition.
In the next experiment the target is E111P. Description: substrate peptide degradation inhibition.
Another experiment has as its target L114P. Description: substrate peptide degradation inhibition.
In another experiment the target is Q108N. The experiment can be described thus: substrate peptide degradation inhibition.
A further experiment addresses I198V. The experiment can be described thus: substrate peptide degradation inhibition.
Another experiment addresses T109F. The experiment can be described thus: substrate peptide degradation inhibition.
The target of another experiment is P180A. The experiment can be described thus: substrate peptide degradation inhibition.
In experiment [1] the target is T1, active hMMP-9(cat)_His6 (UniProt P14780 107-449). Description: enzyme inhibition; substrate peptide.
T1 sequence (P14780 107-449): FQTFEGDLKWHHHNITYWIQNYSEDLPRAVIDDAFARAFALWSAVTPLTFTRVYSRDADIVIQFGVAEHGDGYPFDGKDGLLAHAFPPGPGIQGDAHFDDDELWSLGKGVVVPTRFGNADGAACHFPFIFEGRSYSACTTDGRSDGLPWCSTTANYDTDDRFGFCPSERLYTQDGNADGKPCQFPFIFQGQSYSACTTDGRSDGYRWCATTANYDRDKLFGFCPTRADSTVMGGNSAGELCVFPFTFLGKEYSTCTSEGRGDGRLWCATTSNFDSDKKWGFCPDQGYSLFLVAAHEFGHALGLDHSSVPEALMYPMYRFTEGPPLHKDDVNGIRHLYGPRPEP
Experiment [2] concerns the target T1, active hMMP-9(cat)_His6. Description: enzyme inhibition; substrate peptide. This is another data set of the same source.

These results are taken from patent publication US20200231654A1 (published 2020).

Where two headings read alike, the source gives them in different places.

B1: M91005 (designed binder)
chain: GSGMKETAAAKFERQHMDSPDLGTDDDDKAMADIGSANSDPQFGLFSKYRTPNCRKRGGPSCQMSYNPVCGSDMSTYANECTLCMKIREGGHNIKIIRNGPCGASAAA
A word on the IC50: it is the concentration that gives 50% inhibition. A high value points to a need for much substance. Regarding B1, the IC50 worked out at 9.3 nM with L418A; 22 nM with D410E; 23 nM in the experiment with P421A; 30 nM with S413Q; 19 nM with G112R; 21 nM with D113K. Further, the IC50 with G186A was found to be 15 nM; with P196T, 18 nM; with E111P it was 31 nM; with L114P, 22 nM; in the experiment with Q108N it was 20 nM; with I198V, 16 nM. Also, the values for the IC50 with T109F and with P180A were 15 nM and 25 nM, respectively.

B2: M91002_G3 (designed binder)
chain: GSGMKETAAAKFERQHMDSPDLGTDDDDKAMAENLYFQGDPQFGLFSKYRTPNCRTGRGPACQMGFQPVCGSDMSTYANECTLCMKIREGGHNIKIIRNGPCGGG
In the experiment with active hMMP-9(cat)_His6 [1], B2 yielded an IC50 of 3.5 nM.

B3: M91002_G2 (designed binder)
chain: GSGMKETAAAKFERQHMDSPDLGTDDDDKAMAENLYFQGDPQFGLFSKYRTPNCRTGRGPACQMGFQPVCGSDMSTYANECTLCMKIREGGHNIKIIRNGPCGG
In the experiment with active hMMP-9(cat)_His6 [1], B3 had an IC50 of 3.5 nM.

B4: M91005_D1G-Fc-01 (Fc fusion)
chain: GSGMKETAAAKFERQHMDSPDLGTDDDDKAMADIGSANSGPQFGLFSKYRTPNCRKRGGPSCQMSYNPVCGSDMSTYANECTLCMKIREGGHNIKIIRNGPCGASAAAGGGGSDKTHTCPPCPAPELLGGPSVFLFPPKPKDTLMISRTPEVTCVVVDVSHEPEVKFNWYVDGVEVHNAKTKPREEQYNSTYRVVSVLTVLHQDWLNGKEYCKVSNKALPAPIEKTISKAKGQPREPQVYTLPPSREEMTKNQVSLTCLVGFYPSDIAVEWESNGQPENNYKTTPPVLDSDGSFFLYSKLTVDKSRWQQNVFSCSVMHEALHNHYTQKSLSLSPGK
In the experiment with active hMMP-9(cat)_His6 [2], B4 yielded an IC50 of 4.3 nM.

B5: M91002_G0 (designed binder)
chain: GSGMKETAAAKFERQHMDSPDLGTDDDDKAMAENLYFQGDPQFGLFSKYRTPNCRTGRGPACQMGFQPVCGSDMSTYANECTLCMKIREGGHNIKIIRNGPC
In the experiment with active hMMP-9(cat)_His6 [1], B5 displayed an IC50 of 3.6 nM.

B6: M91011 (designed binder)
chain: GSGMKETAAAKFERQHMDSPDLGTDDDDKAMADIGSANSDPQFGLFSKYRTPNCMMYKYAQCSHKSQPVCGSDMSTYANECTLCMKIREGGHNIKIIRNGPCGASAAA
For the molecule B6, the IC50 was found to be 8.7 nM with P421A; 28 nM with S413Q; 15 nM with G112R; 21 nM with D113K; 16 nM in the experiment with G186A; 23 nM with E111P. Further, the IC50 in the experiment with Q108N came to 21 nM; in the experiment with I198V, 16 nM; with T109F, 15 nM; with P180A, 24 nM.
